# Measurements reported in IntAct's records for PubMed 15234987.
# Target: fog1_mouse Zfpm1 (UniProt O35615)
# Sequence (O35615 whole entry): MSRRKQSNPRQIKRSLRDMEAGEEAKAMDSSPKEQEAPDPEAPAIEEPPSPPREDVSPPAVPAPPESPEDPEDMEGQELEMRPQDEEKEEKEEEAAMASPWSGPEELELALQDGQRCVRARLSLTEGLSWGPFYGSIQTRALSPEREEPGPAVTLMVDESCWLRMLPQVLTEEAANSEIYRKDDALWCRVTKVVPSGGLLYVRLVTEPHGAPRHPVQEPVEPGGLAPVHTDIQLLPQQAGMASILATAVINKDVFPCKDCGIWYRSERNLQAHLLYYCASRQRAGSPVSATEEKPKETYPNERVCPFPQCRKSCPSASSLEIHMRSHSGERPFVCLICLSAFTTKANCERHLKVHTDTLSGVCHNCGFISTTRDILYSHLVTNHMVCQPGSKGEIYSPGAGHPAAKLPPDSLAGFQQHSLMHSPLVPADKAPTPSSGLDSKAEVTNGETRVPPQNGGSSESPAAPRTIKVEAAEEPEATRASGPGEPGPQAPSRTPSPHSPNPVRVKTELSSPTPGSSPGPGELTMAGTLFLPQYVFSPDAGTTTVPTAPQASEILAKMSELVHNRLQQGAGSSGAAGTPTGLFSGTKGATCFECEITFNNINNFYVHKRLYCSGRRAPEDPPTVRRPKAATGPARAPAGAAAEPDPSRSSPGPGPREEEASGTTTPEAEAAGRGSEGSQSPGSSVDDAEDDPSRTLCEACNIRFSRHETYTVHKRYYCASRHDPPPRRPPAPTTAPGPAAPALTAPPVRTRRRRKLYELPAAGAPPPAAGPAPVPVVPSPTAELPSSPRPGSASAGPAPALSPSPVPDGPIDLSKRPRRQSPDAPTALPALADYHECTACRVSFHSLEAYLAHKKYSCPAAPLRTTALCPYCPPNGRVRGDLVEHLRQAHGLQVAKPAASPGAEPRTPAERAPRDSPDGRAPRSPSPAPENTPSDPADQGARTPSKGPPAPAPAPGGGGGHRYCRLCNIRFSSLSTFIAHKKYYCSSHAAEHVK
# Chain of Transforming acidic coiled-coil-containing protein 3 (Mus musculus), Q9JJ11 I625A;S626A (Q9JJ11 whole entry I625A/S626A): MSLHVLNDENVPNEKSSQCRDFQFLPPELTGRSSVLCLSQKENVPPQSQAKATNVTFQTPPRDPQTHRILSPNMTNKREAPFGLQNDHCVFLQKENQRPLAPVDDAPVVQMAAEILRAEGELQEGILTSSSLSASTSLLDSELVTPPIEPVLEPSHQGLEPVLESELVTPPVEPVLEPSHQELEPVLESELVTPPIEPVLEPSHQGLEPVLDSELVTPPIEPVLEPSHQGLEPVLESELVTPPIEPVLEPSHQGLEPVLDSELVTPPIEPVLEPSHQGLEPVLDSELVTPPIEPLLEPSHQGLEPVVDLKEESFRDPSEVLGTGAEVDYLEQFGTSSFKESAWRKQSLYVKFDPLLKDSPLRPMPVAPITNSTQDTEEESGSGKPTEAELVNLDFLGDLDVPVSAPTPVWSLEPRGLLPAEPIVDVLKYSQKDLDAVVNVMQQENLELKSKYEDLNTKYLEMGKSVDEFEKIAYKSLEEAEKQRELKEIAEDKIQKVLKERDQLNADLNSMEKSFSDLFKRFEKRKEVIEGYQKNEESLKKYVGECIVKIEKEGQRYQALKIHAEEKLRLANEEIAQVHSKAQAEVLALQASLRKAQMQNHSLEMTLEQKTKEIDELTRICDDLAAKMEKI
# Chain of Transforming acidic coiled-coil-containing protein 3 (Mus musculus), Q9JJ11 R619A;I620A (Q9JJ11 whole entry R619A/I620A): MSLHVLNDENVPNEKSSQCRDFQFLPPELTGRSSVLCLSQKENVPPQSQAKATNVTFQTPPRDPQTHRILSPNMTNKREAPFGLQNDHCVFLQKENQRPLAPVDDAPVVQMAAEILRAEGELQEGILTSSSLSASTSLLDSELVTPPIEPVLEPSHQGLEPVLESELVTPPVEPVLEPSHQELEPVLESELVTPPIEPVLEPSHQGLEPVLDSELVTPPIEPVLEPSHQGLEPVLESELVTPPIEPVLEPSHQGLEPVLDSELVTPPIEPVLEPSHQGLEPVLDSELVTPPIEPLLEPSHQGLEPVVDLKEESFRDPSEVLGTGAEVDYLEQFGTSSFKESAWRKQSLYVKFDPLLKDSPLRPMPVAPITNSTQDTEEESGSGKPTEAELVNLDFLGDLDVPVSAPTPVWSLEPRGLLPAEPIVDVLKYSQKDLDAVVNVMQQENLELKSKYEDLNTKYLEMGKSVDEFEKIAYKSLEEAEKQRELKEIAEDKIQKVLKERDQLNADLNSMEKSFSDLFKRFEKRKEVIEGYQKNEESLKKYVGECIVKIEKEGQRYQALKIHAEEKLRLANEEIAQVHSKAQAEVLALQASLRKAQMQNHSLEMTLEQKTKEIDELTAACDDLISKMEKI
# Chain of Transforming acidic coiled-coil-containing protein 3 (Mus musculus), Q9JJ11 D622A;D623A (Q9JJ11 whole entry D622A/D623A): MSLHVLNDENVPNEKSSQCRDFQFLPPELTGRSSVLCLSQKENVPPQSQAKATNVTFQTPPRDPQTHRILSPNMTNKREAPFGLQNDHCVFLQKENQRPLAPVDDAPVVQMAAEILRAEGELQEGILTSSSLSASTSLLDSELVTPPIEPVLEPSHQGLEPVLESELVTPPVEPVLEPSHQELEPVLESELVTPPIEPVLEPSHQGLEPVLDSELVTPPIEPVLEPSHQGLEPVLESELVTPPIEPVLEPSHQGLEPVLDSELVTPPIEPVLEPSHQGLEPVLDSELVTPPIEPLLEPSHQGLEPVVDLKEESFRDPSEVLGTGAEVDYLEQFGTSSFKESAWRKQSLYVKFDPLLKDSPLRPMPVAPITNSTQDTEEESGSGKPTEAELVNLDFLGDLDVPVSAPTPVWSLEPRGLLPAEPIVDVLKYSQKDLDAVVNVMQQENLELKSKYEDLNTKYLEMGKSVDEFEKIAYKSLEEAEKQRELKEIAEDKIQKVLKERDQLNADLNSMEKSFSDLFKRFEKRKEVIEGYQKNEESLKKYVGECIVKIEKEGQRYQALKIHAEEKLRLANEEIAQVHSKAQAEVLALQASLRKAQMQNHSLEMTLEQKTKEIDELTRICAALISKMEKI
# Chain of Transforming acidic coiled-coil-containing protein 3 (Mus musculus), Q9JJ11 D615A;E616A (Q9JJ11 whole entry D615A/E616A): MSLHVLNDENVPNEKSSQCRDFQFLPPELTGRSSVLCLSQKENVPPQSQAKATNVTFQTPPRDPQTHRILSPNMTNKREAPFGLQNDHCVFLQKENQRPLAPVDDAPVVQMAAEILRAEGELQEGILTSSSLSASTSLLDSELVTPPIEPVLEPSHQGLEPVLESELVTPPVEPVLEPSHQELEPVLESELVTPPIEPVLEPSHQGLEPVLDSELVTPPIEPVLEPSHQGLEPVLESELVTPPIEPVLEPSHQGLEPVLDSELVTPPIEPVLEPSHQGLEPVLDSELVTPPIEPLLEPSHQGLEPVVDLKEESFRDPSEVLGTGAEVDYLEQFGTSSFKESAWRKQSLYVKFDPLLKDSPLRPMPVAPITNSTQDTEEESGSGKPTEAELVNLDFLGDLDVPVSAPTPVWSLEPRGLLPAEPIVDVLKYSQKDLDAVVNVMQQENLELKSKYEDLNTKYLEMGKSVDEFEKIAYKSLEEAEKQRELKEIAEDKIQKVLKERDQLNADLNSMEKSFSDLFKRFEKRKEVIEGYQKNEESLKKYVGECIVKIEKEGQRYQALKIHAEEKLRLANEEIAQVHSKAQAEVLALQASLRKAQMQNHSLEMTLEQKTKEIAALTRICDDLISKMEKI
# Chain of Transforming acidic coiled-coil-containing protein 3 (Mus musculus), Q9JJ11 E629A;K630A (Q9JJ11 whole entry E629A/K630A): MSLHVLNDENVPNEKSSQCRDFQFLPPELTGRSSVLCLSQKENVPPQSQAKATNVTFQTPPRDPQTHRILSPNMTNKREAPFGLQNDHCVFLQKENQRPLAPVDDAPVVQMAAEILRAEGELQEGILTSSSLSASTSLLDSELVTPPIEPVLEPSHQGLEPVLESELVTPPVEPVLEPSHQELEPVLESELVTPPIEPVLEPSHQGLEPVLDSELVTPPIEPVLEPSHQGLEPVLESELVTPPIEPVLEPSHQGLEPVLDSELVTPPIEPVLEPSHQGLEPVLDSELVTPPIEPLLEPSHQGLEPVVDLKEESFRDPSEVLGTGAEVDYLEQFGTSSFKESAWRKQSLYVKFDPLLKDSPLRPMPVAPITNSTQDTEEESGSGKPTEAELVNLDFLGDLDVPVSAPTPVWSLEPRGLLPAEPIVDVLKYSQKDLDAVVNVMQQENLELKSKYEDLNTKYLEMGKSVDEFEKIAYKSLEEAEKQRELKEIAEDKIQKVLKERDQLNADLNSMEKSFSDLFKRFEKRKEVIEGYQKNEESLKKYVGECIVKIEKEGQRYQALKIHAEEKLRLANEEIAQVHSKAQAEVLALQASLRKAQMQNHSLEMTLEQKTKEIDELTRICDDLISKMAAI
row,Substance,effect of a mutation on the interaction
1,"Transforming acidic coiled-coil-containing protein 3 (Mus musculus), Q9JJ11 D615A;E616A",decreasing interaction
2,"Transforming acidic coiled-coil-containing protein 3 (Mus musculus), Q9JJ11 D622A;D623A",decreasing interaction
3,"Transforming acidic coiled-coil-containing protein 3 (Mus musculus), Q9JJ11 E629A;K630A",decreasing interaction
4,"Transforming acidic coiled-coil-containing protein 3 (Mus musculus), Q9JJ11 I625A;S626A",decreasing interaction
5,"Transforming acidic coiled-coil-containing protein 3 (Mus musculus), Q9JJ11 R619A;I620A",decreasing interaction
